US7091173 (MYRIAD GENETICS, dated 2006)

Molecular target: T1, FKBP-associated protein FAP48 (FAP48), amino acids 118-418, bait fused to the Gal4 DNA binding domain (human, UniProt P04386 1-147 (Saccharomyces cerevisiae entry))
T1 construct: range 1-147; Bait of the yeast two-hybrid screen; The coordinates 118-418 are counted on GenBank U73704
Assay: yeast two-hybrid; listed as prey of the bait in 'Binding Regions of FAP48 and Its Interacting Partners'; true positive by beta-galactosidase assay
Source text: The new construct was selected directly in the yeast strain PNY200 for its ability to drive tryptophane synthesis (genotype of this strain: MATα trp1-901 leu2-3, 112 ura3-52 his3-200 ade2 gal4Δ gal80). In these yeast cells, the bait was produced as a C-terminal fusion protein with the DNA binding domain of the transcription factor Gal4 (amino acids 1 to 147). Prey libraries were transformed into the yeast strain BK100 (genotype of this strain: MATa trp1-901 leu2-3,112 ura3-52 his3-200 gal4Δ gal80 LYS2::GAL-HIS3 GAL2-ADE2 met2::GAL7-lacZ), and selected for the ability to drive leucine synthesis. In these yeast cells, each cDNA was expressed as a fusion protein with the transcription activation domain of the transcription factor Gal4 (amino acids 768 to 881) and a 9 amino acid hemagglutinin epitope tag. PNY200 cells (MATα mating type), expressing the bait, were then mated with BK100 cells (MATa mating type), expressing prey proteins from a prey library. The resulting diploid yeast cells expressing proteins interacting with the bait protein were selected for the ability to synthesize tryptophan, leucine, histidine, and adenine. […]

B1: Dynactin (DCTN1(1278), p150-Glued), amino acids 1063-1205, prey fused to the Gal4 activation domain (other, UniProt P04386 768-881, looked up, not shown: small tags and cut ends)
chain: ANFNQSGNIADSSLSFTFTNSSNGPNLITTQTNSQALSQPIASSNVHDNFMNNEITASKIDDGNNSKPLSPGWTDQTAYNAFGITTGMFNTTTMDDVYNYLFDDEDTPPNPKKEIAGEEQQRGAIPGQAPGSVPGPGLVKDSPLLLQQISAMRLHISQLQHENSILKGAQMKASLASLPPLHVAKLSHEGPGSELPAGALYRKTSQLLETLNQLSTHTHVVDITRTSPAAKSPSAQLMEQVAQLKSLSDTVEKLKDE
notes: range 768-881;range 1063-1205; Prey clone of the yeast two-hybrid screen; Coordinates are counted on the GenBank entry; also called 150 kD dynein-associated polypeptide; DP-150
binding result: binds
